Assay: label from the status in PepcDB records

Sequence | protein production
MLKTVRIIILGAMCTILSAAGFDPPQPAAAKSQADEYEYPFQDPSLPVQKRVSDLLSRLTLEEKVSLMHQYQPAVPRLGIPAFKTGTEALHGVAWLGEATVFPQAFGLAHTWDRYLIKQIGSAVGDEVRGFHHLDPAANGVNVWAPVVDLLRDPRWGRNEEGYSEDPFLTGEIATAYASGLRGDHPFYLKTVPTLKHFLAYNNETDRGFSSSSIDPRNMHEYYLKPFETAISKKAAYGLMPAYNSVNDKPAILSPLLDSTVKRRWAGDDFFIVSDAFDPSGIVNDHKYYDSHEKAHAHAVKAGIDNFTDQGENPELTRNALTGALKQGLISEKDLDQALANTFSIRFRTGEFDPDELNPYSRLTDDVINSPKHQLLAKKAAEKAIVLLKNDQDLLPFNARKNESIAVIGPFGNALYEDWYSGTMPYRKTPLDEIADKIGKDRVSFAEGLEQSGFKSALTGKFVTAGRDGKQPLTAAADKLEKSAAFDAADWGESIFTLRAQANGLYVSLQDDGRLIADQKQPNGRTVKETFQFEQQSDGTFAIKNTANGKYLTAGKDGTLTAAAEKPATAAEKFSKTIIKSGTDEAVQLAKSADKAIVFVGNNPYINGRETEDRKDITLPPAQENLLKAVSKANTNTVLVVTSSYPFALNWAKAHIPAIIYSAHGGQEAGSALADILYGDVNPGGRLTQTWHTSVKELPDMMNYDIIKGKRTYKYFVGKPLFPFGHGLSYTAFRYSDLSLSSDSIKKDGSVTIRVNVTNTGGRKGDEVVQLYTSPLFKTRVKQPNLDLKDFQRVELAPKETKTVTFKLKQTDLAFWDVTRETFAVERGPYRISVGSSAADIRKTKRIFVQGETIRERNLRRKTNAEDYDDYKGVLITEESKYGGDAVKSSTTNAWIAYHDVRFKGEKRIEAKVASSGAGEIGIFLDHPQKGKQIGSLKVPDTSGLQNWKTVKASVRKSTGTHRVFFVFKGKVAIDSFQFER | failed
MLLALLSLGTWPAVLTLLERRGRLPQHTYLDYSITNLLAAIIIAFTFGQIGSTKPDSPNFITQLAQDNWPSVMFAMAGGIVLSLGNLSTQYAWALVGLSVTEVITSSITVVIGSTLNYFLDDKINKAEILFPGVACFLIAVCLGSAVHRSNADDNKAKLRDFETAKQEASGPSTEIGTNSSKDLETNVTTKPKEGTARFLIELENTRAIKVFGKRKIIGLAITFFAGLCFSLFSPAFNLATNDQWNRLKQGVPKLVVYTAFFYFSVSCFIIALILNVVFLYYPVLGLPKSSFKAYLNDWNGRYWAFLAGFLCGFGNGLQFMGGQAAGYAAADSVQALPLVSTFWGVVLFGEYRRSSRKTYLLLFCMLFMFISAVAVLMASSGHRK | failed
MLLEGLLFVLAAGIFTAIVCGFGTLPFFFVDEISDRVTVALWGLAGGIMLFASLFGFIFEGLRDGTVFEVGAGLVVGVVVVVVADRIITGYEFEPRDIPDADFRKLVLIVGVLTVHSFPEGVALGVAFADLGIEGDLVLAGLAIPGLAIFITAAISIQNIPEGLAVAIPLHTYGIANWKIFGWAVFSSIPQPIGAGIAYVFVTTAREFLPFGFGFASGAMIFLVLHDIFPEGLDHGSDLPGHGRRELLVGIAVGVAIMLPVMLLTE | failed
MLLGVIPVLAILLLGFNIHLLVKERRYKKSWISFSMLGLNGLLFVAFTFFLLVYMAGFVTITTIPPFVYWFLIMLGFIIEGMSLYKKYVPGQMTAAAIHLFVVLPTIFSIGIVLLLVAIIELIVAMMNGTGGHPVPRNKQTTTP | failed
MLLHGTNRSLRTGLRARGRGSTGARGTLAVSHAAGPSSHSLTLHSCALLPYTLHAHAFFPCAQTNMASSKKAIYAAILGNFAIAVTKFLGAAVSGSSAMLAEGIHSLVDTGNGGLLLLGLRRSKRPPDENHPYGYGKSLYFYTLVVAVLIFGLGGGISLYEGILHTLDPGHGGASTASVLGVTVGGLMLNTVVLGAAIVFEGLALRTALQEFKKQRGDTPFFEAIVTSKDPTTFTVVFEDTAALAGLVVALVGIHLASLLHMPVIDGIASIIIGLILCGVAAFLIWESKKLLIGEAAAPEIRDDIRRMAHDDADIASVERLLTMHMGPRALLLNMDLRFRDDLDANTVEAAVDRLERAIRKAHPSIRYIFVEAGSIARTRASDSGASAAGGPPS | failed
MLLHLSTWQEVEAYLQQSKGIIFPIGSTEQHGPTGLIGTDAICAEAIAAGVGDATGAIVGPTINVGMALHHTAFPGTISLRPSTLIQVVRDYVTCLAKAGFSKFYFINGHGGNIATLKAAFSETYAHLEDLQIANAQQVQCQVANWFMCGSVYKLAKELYGDQEGSHATPSEVALTQYVYPEAIKQAPLSPEVASGHRIYSAADFRVRYPDGRMGSNPGLATPEHGKQFYDLAVKELSNGYLEFVNAD | not failed
MLLIFFKKYEQSDIMRKLFLLSILMIGVIVAFAGCVEESKTTTQLQQTTQSESQKAETQPKLGVNVVRYAETFKLYPHWDEGYCVVADSVGNKFVLVEGNAKAPNISDGKIIKVPVKRIVTDFYCPIISAADILNAYHHTIVGAPKYAVEKSPKLKELFDEGKVVDIGSPSKGVNYELIVNLTPDIVFLGDWKSEDVVEEKLKELGVTVSRFYTYQEPTYMGRVEWIKFAAAFWGSNAYKKADKWFENVVKVRENILKKVQNVTNEPTVVIFSWSKTKNMPGIYGNDSYYSKMIAEFKGKNVFDDYNRGYQYVDKETFYERAMNADVVILIWFYGDVKTKEDLLKINPNFAEFKAFKTGRFYVSHPDYYVWEARDPAGYMMDFAKMIHPELFGGDDDLKYYYKIK | failed
MLLQANRGLGLSAHIIDHCNLILKFPEGTNSTWYNAQFKVFEALEFKYNVCEAVLLWEQYRNMTTVLTREYLDVRPDGWLDYAAMRIAQLGADKCYNRTLCEEHLNVILPAKPPFHPRQFHKCAVVGNSGDLLKTEFGEEIDSHDAVFRDNEAPVNEKYAKYVGVKRDFRLVVRGAARNMIKILNGSDNEVLIIKSVTHRDFNEMIKRIPNPVYLFQGIVLRRGAKGTGMKSIELALSMCDIVDIYGFTVDPGYTEWTRYFSTPRKGHNPLQGRAYYQLLECLGVQITC | failed
MLLRRRLFVLCILILTITAVQSFVHVLSGDGLSALDLALTAVFVPLAAWLAQSFCTLTAGALMIATQRFSWRRRRDELADIASGLVDSLPRVAIVMPVYNEDSGRVFAGVAAMRDELRALGVAKRFDVFILSDSTDGDNWLAEEEAWDSERHRVGDSPRLFYRRRFRNIKRKTGNIGQFVERHGAAYGYMVVLDADSLMSGEAIWVLTRRMDAERRTALIQAPPKLIMGDTPFSRMLQFAGDVYGPLSSAGLAFWAGGEGNYWGHNAIIRVDAFAACCGLPALPGRAPLGGDILSHDFVEAALLRRAGWKVRIAWDLGGSYEEPPPTMEDFMVRDRRWCQGNMQHGRILFARGLHGVSRSHLLIGIMSYVTSPLWLIFLILSGMQAWTLARAKAVYFQQGVPWATWPISREEEAAYLLAGTLGMLFLPKIWGLLLAIFHGPTRRAHGGGLALVGGFFLENLISALVAPIMMIRHSQFVVSILTGAKVDWKPQRRTADKGNLRVALASYKDVMVIGIAAVAFVLWAAPSLGVWLSPVLAGLLGAPFLAMALGDPDLGAALRRRGLLVIPEEITPPSVLTRMEERLAARPPTAEAPESRFSRVILDPGTNARHRALIQATGEAPTAPVEVMERAVGLAIHLGPEALGKDERKALLECPERLEQLHVACWARRLEDRGGVAPG | failed
MLLSFFLINSNGEVIIEKSWKTEHTRRVCDLFWQEILKVSSPEELAPLLHFPKFTIVHIYSCGVFLVATVRKTLQSTFALELLHHLVDTFVDYFGEFNEHAIKENFVTVYEIIEEVLDHGFPFTVDIASLKELVPPPSLLSRVLGSVTGSSLSLKDISDWNSRKKVSWRNPNIRYAHNEIFVDIVEEVSVVLNSKGQCIHSGISGSIVVNCRLSGMPELALHLNESSIAKHSFVHPCVRYGRFIREGIISFVPPDGVFQLLKYQTWKAPYIPVTLEPQYSVDKERKHGRLQLTLDIRGCGGKPCEEMMISIPFHHATNITNLNVTVGTVRYDSQIQVCPI | failed
MLLSKKSEYKTLSTVEHPQYIVFCDFDETYFPHTIDEQKQQDIYELEDYLEQKSKDGELIIGWVTGSSIESILDKMGRGKFRYFPHFIASDLGTEITYFSEHNFGQQDNKWNSRINEGFSKEKVEKLVKQLHENHNILLNPQTQLGKSRYKHNFYYQEQDEINDKKNLLAIEKICEEYGVSVNINRCNPLAGDPEDSYDVDFIPIGTGKNEIVTFMLEKYNLNTERAIAFGDSGNDVRMLQTVGNGYLLKNATQEAKNLHNLITDSEYSKGITNTLKKLIGFMRRK | not failed
MLLSPNLLAEGQSRYISDNVFLYLLNGPGTDYRILGSIEAGQPITLQGETQGDYSKIVDHKGREGWVQTNLISSTPSFREQVSTLTNELNEAKAKLAEVLNSTGNQTDEVAELKAQLAEAQTMLAKANQERENLKMAVDHSAQETQFALWREGGIIAAAGLVVGVILVYLPRPQRRNKKRWMLEHHHHHH | failed
MLLSYLIYGLRNGFMVTLGGIAGFVVGAIAAFMAVPLVSGWVTDSGWRLTATVGAAVVLIALGHGLGTMIGRKVRHTVRIKPLHAVDRLIGGVVSVVVAALVMSMLAFSISSLGVPFVSQQLAESRVIRYIDDLTPTPVKSTMAQLRSTVIGDGIPKLIEGIGPVTPVPVPNESTDTPALNQAAESVLKIAGTAFECGQNQTGSGFVVSPGRVVTNAHVVAGVSQPVVEVPDGGALPGRVVYFDSQRDIAVLAVDGLQSSPLPLSADLPAGSSAAFAGYPHGGPFQSKPATVQGISTILVPDIYGNNPSPEQVYKLAGDVQPGNSGGPLLTMQGQVAGLIFAKTTTDAALGFALTMADLEPVAAQAPGLSNPVSAGQCTRK | failed
MLLSYVYKLNPSLKQAETMERWLHLLRLQYNFRVRERTEAYEQAKAPVMGNYCILQTQAECCPLTCSVSKGALYGNPWSTKGKKRSPLAQQDANLVDLKKERPWYGEICYHVLQQMLKQVDTAFVRFFKGLGKYPKTKRRGKLRSFTYPTGDVGFKGNKVRLPGLGWMRFFQSRPFPLGFKIRSTTVRKKANGFYISVLLQDDTVPQASASQQIQTALGVDLGIKKLISLSTGETIANPRFYKQMERKRSRLNWAANRKVLGSRRRQKAYQQIAQLEQKVTNQREDYQWKIAHNLVKRFDLIVFENLNVQGMMARCKPKQDESGKYLRNGQSAKSGLNKAIADAAWGSLKLKVKILSERAGVLVHEVKPNFSSQECSECGYISPTNRDKEKFLCEHCGHHADADIDAAKVILKRGLSELGINLDAVSGVPRKQDKSTSKEPVARQGISTALAVEPGNPHQVEERLSN | failed
MLLTIFSILAILCLVLYFYCMVILHLKNKGVYHPMTHAVSDYGIGQNKSYFQLAGLANTFRNLFLILSLIFWKYSFSFKKEAVLLLILAIIGYAGVALFPTDIEGSKRTVKGIIHLLFAILQFTALAIFIFNVTEVLKPLNATLFLIASYIKIVVEVGLYGLVIALFLPFVKKYFGLFERLFLYSSNLYILLLCVMMIRY | failed
MLLVMGAHESGLDRARLQSLYEQLVATNEDETEKLAASGHSTGLVASEWARFLAPFDFGYRLVALQRESKRVAAALTRALYGIDTSGASEHDPLWAVEHRVLPVPVTDRLLFCEMRFLLVLALSRRLWMRLERVDPLGQENPFPRDAEIIERVEDLARQSRERLALLAERSPEALNAGKQEAHDCIEDLRTKETRAAEQVAGFAQALGDAALLEKVWHALVDEIAQNRQLNHALLQTLCQWVLMLIGADTEVPSSASCSDE | not failed
MLLYMRFTENFERAKKEALMSLEIALRKGEVDEDIIPLLKKINSIENYFTTSSCSGRISVMEMPHFGDKVNAKWLGKWHREVSLYEVLEAIKKHRSGQLWFLVRSPILHVGAKTLEDAVKLVNLAVSCGFKYSNIKSISNKKLIVEIRSTERMDVLLGENGEIFVGEEYLNKIVEIANDQMRRFKEKLKRLESKINALNR | not failed
MLMLEREKLARLIKKRSLKVADEPVFKLSSGKLSRYYVDLKQITFDPEGDYLIGKAMYELVKEFNPDACGGLTLGADPIAYAIAFVSLMDSNPIKPFVVRKEPKGHGMKRQIEGLLNPGERVAVLEDVVTTGSSALKAVKACREYGLEVIGVFAVVDREEGGRENIEKEGIPLYSLFKLSELL | not failed

— a protein production outcome set (Wang et al. 2014)
